The target in this experiment is T1, SARS-CoV-2 spike receptor binding domain, monomeric (SARS-CoV-2, UniProt P0DTC2).
T1 construct: also called RBD; monomeric RBD
The experiment is described as follows: SPR. Conditions: both partners purified.

B1: CoVIC-259 (antibody, V domains shown)
VH: EVQLVESGGGVVQPGRSLRLSCAASGFTFSSYAMHWVRQAPGKGLEWVAVLSYDGSNKYNADSVKGRFTISRDNSKNTLYLQMNSLRVEDTAMYYCARDGVSVTMVRGVIGPLCDYWGQGTLVTVSS
VL: not shown
notes: also called RBD-1 community representative
For B1, the binding result is recorded as “binds”.
